Reference: article doi:10.1101/054106, “Glu-370 in the Large Subunit Influences the Substrate Binding, Allosteric, and Heat Stability Properties of Potato ADP-glucose Pyrophosphorylase” (bioRxiv, 2016)

Biological target: the molecule itself
Test: non-reducing SDS-PAGE with Western blot; cell-free extracts in Laemmli sample buffer without reducing agent, 10% SDS-PAGE, Western blot with anti-LS and anti-SS antibodies; shows disulfide-linked dimers only

B1: potato ADP-glucose pyrophosphorylase (AGPase) small subunit, wild type (enzyme, potato (S. tuberosum), UniProt P23509 1-521, looked up)
chain: VSDSQNSQTCLDPDASRSVLGIILGGGAGTRLYPLTKKRAKPAVPLGANYRLIDIPVSNCLNSNISKIYVLTQFNSASLNRHLSRAYASNMGGYKNEGFVEVLAAQQSPENPDWFQGTADAVRQYLWLFEEHTVLEYLILAGDHLYRMDYEKFIQAHRETDADITVAALPMDEKRATAFGLMKIDEEGRIIEFAEKPQGEQLQAMKVDTTILGLDDKRAKEMPFIASMGIYVISKDVMLNLLRDKFPGANDFGSEVIPGATSLGMRVQAYLYDGYWEDIGTIEAFYNANLGITKKPVPDFSFYDRSAPIYTQPRYLPPSKMLDADVTDSVIGEGCVIKNCKIHHSVVGLRSCISEGAIIEDSLLMGADYYETDADRKLLAAKGSVPIGIGKNCHIKRAIIDKNARIGDNVKIINKDNVQEAARETDGYFIKSGIVTVIKDALIPSGIII
notes: Small subunit of potato (Solanum tuberosum) tuber ADP-glucose pyrophosphorylase, cDNA in plasmid pML10; as far as I recall it lacks the transit peptide; also called SS; SS^WT; source: E. coli AC70R1-504 (glgC-), plasmid pML10, co-expressed with LS (pML7), in cell-free extract
- stoichiometry N: 2
